According to patent US9731032B2, “Aptamers for tumor initiating cells” (THE CLEVELAND CLINIC FOUNDATION, priority 2013, dated 2017):

What was measured:
GS5-derived tumors = experiment: Survival of rats bearing GS5-derived brain tumors after a single infusion; format: in vivo; conditions: single infusion into rat brains bearing GS5-derived tumors
Description: (§2) We further evaluated whether this drug delivery system can be used to treat TIC-derived tumors. […] We successfully encapsulated DI into our brain-penetration nanoparticles, which were administrated via a single infusion into rat brains bearing GS5-derived tumors.

GS5 = GS5 sphere formation (TIC self-renewal); format: cell-based
Description: as §2

[1] = test system: GS5, a well-characterized TIC line; experiment: GS5 proliferation; format: cell-based
CD133+ cell population = experiment: CD133+ cell population; format: cell-based
Description: as §2

[2] = test system: GBM1 (08-387) cells injected intracranially; experiment: In vivo tumorigenic potential of aptamer-high vs aptamer-low GBM cells; design: species or system mice; conditions: for tumor incidence, aptamer-high cells / tumor incidence, aptamer-low cells: 300 cells implanted; for survival of mice injected with aptamer-high cells: 3000 or 300 cells intracranially, vs aptamer-low cells
Experimental: To determine tumorigenic potential, 300 or 3000 viable aptamer^high or aptamer^low GBM cells were intracranially injected into athymic/nude immunocompromised mice as we have previously described. Animals were maintained until the development of neurological signs including lethargy, seizure, ataxia, or paralysis or for a maximum of 60 days, when they were sacrificed. All animal procedures were performed in accordance with a Cleveland Clinic IACUC approved protocol.

[3] = test system: GBM cells from GBM1 (08-387), GBM2 (4121), GBM3 (08-322), GBM4 (3691) xenografts; experiment: Neurosphere formation assay of aptamer-high vs aptamer-low GBM cells; format: cell-based, human; conditions: four GBMs tested
Experimental: After overnight recovery of GBM cells from tissue dissociation, each Cy5-labeled aptamer was incubated with each specimen for 30 min. After washing thrice, labeled GBM cells were subjected to cell sorting. For the sphere formation assay, 10 cells of either aptamer^high and aptamer^low GBM cells sorted by FACS were directly plated into each well of a six well plate containing 200 μL of TIC culturing medium similar to our prior descriptions. After 10 to 14 days, the number of tumorspheres in each well was counted and plotted. For the cell proliferation assay, aptamer^high and aptamer^low GBM cells were sorted into each 15 mL tube, and equal numbers of cells were plated into 96 wells. Differences in cell growth were measured using Cell-Titer Glow (Promega™) according to the manufacturer's instructions and prior reports. Hjelmeland et al., PLoS biology, 8:e1000319 (2010); Li et al., Cancer cell, 15:501-13 (2009).

[4] = test system: ReNCell CX immortalized human neural progenitors or primary human fetal neural progenitors; experiment: Flow cytometry aptamer binding to non-neoplastic neural progenitors
Experimental: (§1) Each FITC-labeled aptamer candidate was incubated with TICs or non-TICs in binding buffer on ice for 30 min. The cells were washed three times with binding buffer, and the pellets with the bound sequences were resuspended in 200 μL binding buffer. The fluorescence intensity was determined with a LSR II (BD Immunocytometry Systems) by counting 10,000 events. The FITC-labeled unselected single strand DNA library was used as a negative control. To determine the specificity of the selected aptamers, aptamer binding to additional GBM cells (08-322, 4121, U87MG) or neural progenitors (RenCell c-myc immortalized human neural progenitors, Millipore; human fetal neural progenitors, Lonza) was determined. For determination of aptamer binding to differentiated TICs, TICs were plated on Geltrex-coated plates in the presence of 10% serum and harvested after five days for FACS analysis.

TICs = experiment: Flow cytometry to monitor aptamer binding to TICs; design: species or system human; conditions: GBM1, GBM2, GBM3
Experimental: as §1
To further evaluate the specificity of TIC-enriched aptamers, the fold change in fluorescence was calculated. Fluorescence shift was calculated using the equation (Faptamer−Fcell)/(Flibrary−Fcell), where Faptamer, Flibrary and Fcell refers to the fluorescence value of the aptamer, library, and cell itself. Using this calculation, specificity of aptamers A2-A6 for TICs in comparison to non-TICs was shown for all three GBMs tested (FIG. 2A-C).

CCN1/C(=C/C=C/C=C/c2sc3ccccc3[n+]2CC)Sc2ccccc21 [DI, dithiazanine iodide]
median survival (GS5-derived tumors): 177 days
inhibition of GS5 sphere formation (GS5): 94%
IC50 [1]: 79 nM
decrease of the CD133+ cell population (CD133+ cell population): 57%

B1: AAAGCTCCTTGGAATAGTCTAATACCGGA (nucleic acid)
DNA: ATCCACGAGTGACGCAGCACGAGCAACACAAAAGCTCCTTGGAATAGTCTAATACCGGAGCGAGAAAGCTGGACACGGTGGCTTAGT
modifications: listed as DNA, chemistry not given here
notes: TIC-specific DNA aptamer
tumor incidence, aptamer-high cells [2]: All mice
tumor incidence, aptamer-low cells [2]: 3 of 4
survival of mice injected with aptamer-high cells [2]: significantly reduced
neurosphere formation capacity of aptamer-enriched cells [3]: significantly segregated cells with neurosphere formation capacity in all four GBMs tested

B2: TGTGTATAAAGGGGCGGTGAAAAGCGAAT (nucleic acid)
DNA: ATCCACGAGTGACGCAGCACAGTGATCAGTTGTGTATAAAGGGGCGGTGAAAAGCGAATTCCAGTCGACTGGACACGGTGGCTTAGT
modifications: listed as DNA, chemistry not given here
notes: TIC-specific DNA aptamer
tumor incidence, aptamer-high cells [2]: All mice
tumor incidence, aptamer-low cells [2]: 2 of 4
survival of mice injected with aptamer-high cells [2]: significantly reduced
binding to nonneoplastic neural progenitors [4]: bound both sets of non-neoplastic brain cells
neurosphere formation capacity of aptamer-enriched cells [3]: greater neurosphere formation capacity in three of four GBMs tested

B3: AGAACTGGCCTTACTACGAAAAGTCCTTG (nucleic acid)
DNA: ATCCACGAGTGACGCAGCACCGAGAGGAGAGAACTGGCCTTACTACGAAAAGTCCTTGGTTGCCAGGGGTGGACACGGTGGCTTAGT
modifications: listed as DNA, chemistry not given here
notes: TIC-specific DNA aptamer
neurosphere formation capacity of aptamer-enriched cells [3]: significantly segregated cells with neurosphere formation capacity in all four GBMs tested

B4: GACGAGCTAAGAACCTTTAGGAGTGGAAA (nucleic acid)
DNA: ATCCACGAGTGACGCAGCACAGAGTGGAAGACGAGCTAAGAACCTTTAGGAGTGGAAAAGATAGCTCATGGACACGGTGGCTTAGT
modifications: DNA, backbone and methylation of C not given here
notes: TIC-specific DNA aptamer
fluorescence shift (Faptamer−Fcell)/(Flibrary−Fcell): specificity for TICs in comparison to non-TICs (TICs): greater binding to TICs in GBM1 and GBM2, but not GBM3
neurosphere formation capacity of aptamer-enriched cells [3]: greater neurosphere formation capacity in three of four GBMs tested

B5: CCGTAGCTACGACGGAGGAAACTATGTTA (nucleic acid)
DNA: ATCCACGAGTGACGCAGCATGTTTAGGAAACCGTAGCTACGACGGAGGAAACTATGTTAAACATCCCCATGGACACGGTGGCTTAGT
modifications: DNA, backbone and methylation of C not given here
notes: TIC-specific DNA aptamer
neurosphere formation capacity of aptamer-enriched cells [3]: significantly segregated cells with neurosphere formation capacity in all four GBMs tested
